The target of assay [1] is Rap1 (mouse (endogenous in immortalized murine lung endothelial cells)) (UniProt P62835). Briefly: proximity ligation; Duolink PLA read by flow cytometry; immortalized murine lung endothelial cells in suspension, in the dark or with blue light for the indicated times, rabbit anti-SHANK3 and mouse anti-Rap1; signal as fold over a sample without primary antibodies; cells with SHANK3 shRNA as control.

Assay [2] has the same target. Briefly: proximity ligation; Duolink PLA read by flow cytometry; immortalized mouse endothelial cells expressing CIBN–GFP–CAAX and CRY2–mCherry–talin, in the dark or with blue light for 30 min at room temperature, fixed, permeabilized, stained with rabbit anti-mCherry and mouse anti-Rap1; with or without overexpressed mAzurite–FLAG–WT SPN. (A flow cytometer gives signals particle by particle.)

Chain of UniProt P62835 (P62835 whole entry): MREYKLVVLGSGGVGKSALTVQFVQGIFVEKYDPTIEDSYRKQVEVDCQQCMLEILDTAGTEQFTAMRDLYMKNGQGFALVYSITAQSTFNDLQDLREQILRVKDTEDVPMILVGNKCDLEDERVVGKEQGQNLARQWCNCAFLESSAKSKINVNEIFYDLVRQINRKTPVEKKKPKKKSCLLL

For “CRY2–mCherry–talin (full-length mouse talin-1) (from UniProt P26039 1-2541) (natural protein)”, the percent reduction of the PLA signal of m4 with m2 after 30 min of blue light in assay [1] worked out at 40%. Further, the increase of the PLA signal with blue light over dark in assay [2] amounted to 10%. In assay [1], “SH3 and multiple ankyrin repeat domains 3 (SHANK3) (from UniProt Q4ACU6 1-1730) (natural protein)” came in with a PLA signal, fold over the same cells expressing SHANK3 shRNA of 3 fold. In assay [2], “mAzurite–FLAG–WT SPN (wild-type SPN domain of SHANK3) (domain or fragment)” came in with a percent reduction of the PLA signal of m1 with m2 of 70%.

Source of the values: article PMC11928058.
